# In patent publication US20220356229A1 (published 2022):
# What was measured:
# [1] = molecular target: SARS-CoV-2 full length Spike protein, wild type (SARS-CoV-2, UniProt P0DTC2 14-1208)
# [2] = molecular target: SARS-CoV-2 full length Spike protein, wild type (SARS-CoV-2, UniProt P0DTC2 14-1208); remark: listed apart in the source
# [3] = molecular target: SARS-CoV-2 Spike protein (wild type) (SARS-CoV-2, UniProt P0DTC2 14-1208); assay: SPR (Carterra LSA), mAb coupled to HC30M chip, Spike titrated; Example 4 methods
Binder,"median fluorescence intensity, fold over isotype control [1] [fold over isotype]","median fluorescence, fold over isotype [2] [fold over isotype control]",also measured
"antibody 571 (antibody, V domains shown) VH: EVQLVESGGGLVQPGGSLRLSCAASGFTFSTYWMTWVRQAPGKGLEWVANIKHDGSGKYHVDSVKGRFTISRDNAKNSLYLQMNSLRAEDTAVYYCTRDEGGWYDYWGQGTLVTVSS VL: QSALTQPASVSGSPGQSITISCTGTSSDVGSYNPVSWYQQHPGKAPKVMIYEGSKRPSGVSNRFSGSKSGNTASLTISGLQAEDEADYYCCSYARSSTFVVFGGGTKLTVL",338,,
"antibody 560 (antibody, V domains shown) VH: EVQLVESGGGLVQPGGSLRLSCAASGFTISSNYMSWVRQAPGKGLEWVSVIYSGGSTYYADSVKGRFTISRDNSKNTLYLQMNSLRAEDTAVYYCAREEGEWEKDYYGMDVWGQGTTVTVSS VL: not shown",991,,
"antibody 422 (antibody, V domains shown) VH: QVQLVQSGSELKKPGASVKVSCKASGYTFTSYAMNWVRQAPGQGLEWMGWINTNTGNPTYAQGFTGRFVFSLDTSVSTTYLQISSLKAEDTAVYYCARVIGVVTYYYYGMDVWGQGTTVTVSS VL: not shown",,1250,
"anti-SARS-CoV-2 antibody 1000 (antibody, V domains shown) VH: EVQLVQSGAEVKKPGESLKISCKASGYSFTIYWIGWVRQMPGKGLEWMGVIYPGDSDTRYSPSFQGQVTISADKSISTAYLQWSSLKASDTAMYYCALGYHSGSYPFNWFDPWGQGTLVTVSS VL: EIVMTQSPATLSVSPGERATLSCRASQSVSSNLAWYQQKPGQTPRLLIYGASTRATGIPARFSGSGSGTEFTLTISSLQSEDFAVYYCQQYDNLLTFGGGTKVEIK",,,Kd [3]: 0.092 nM
"anti-SARS-CoV-2 antibody 989 (antibody, V domains shown) VH: QVQLVQSGAEVKKPGASVKVSCKASGYTFTNYYMHWVRQAPGQGLEWMGIINPSDDNTTYAQKIQGRVIMTRDTSTSTVYMELSSLRSEDTAVYYCARAFAEWELLLDYWGQGTLVTVSS VL: not shown",,,Kd [3]: 0.104 nM
"antibody 423 (antibody, V domains shown) VH: EVQLVESGGGLIQPGGSLRISCAASGFTVRNNHMSWVRQAPGKGLEWVSVFYRGGTTYYADSVKGRFTISRDDSKNTVDLQMNSLRGEDTAVYYCARGLSVAASGYFDCWGQGTLVTVSS VL: DIQMTQSPSSVSASVGDTVTITCRANQGISSWLAWYQQVPGKAPELLIYATSTLQSGVPSRFSGSGSGTDFTLTISSLQPEDFATYYCQQANSFPFTFGPGTKVDIK",,1190,
"antibody 454 (antibody, V domains shown) VH: QVQLVQSGAEVKKPGASLKVSCKASGYIFTGYYMHWVRQAPGQGLEWMGWISPNSGGTKYAQKFQGRVTMTRDTSISTAYMELSRLRSDDSAVYYCAREPYYDILTGYYTPRRYLDYWGQGTLVTVSS VL: QSALTQPASVSGSPGQSITISCTGTSSDVGDYNYVSWYQQHPGKVPKLMIYDVSHRPSGVTNRFSGSKSGNTASLTISGLRAEDEADYYCSSYTSSSTYVFGTGTKVTVL",,1090,
"antibody 556 (antibody, V domains shown) VH: QVQLVESGGGVVQPGRSLRLSCAASGFTFSSYAMHWVRQAPGKGLEWVAVISYDGSDKYYADSVKGRVTISRDNSKNTLYLQMNSLRVEDTAVFYCAKDDCSGGVCFPDYWGQGTLVTVSS VL: QSALTQPASVSGSPGQSITISCTGTSSDVGGYNYVSWYQQHPGKAPKLMIYEVSIRPSGVSNRFSGSKSGNTASLTISGLQAEDEAAYYCSSYTSSSTLVFGGGTKLTVL",625,,
"antibody 421 (antibody, V domains shown) VH: QVQLVESGGGVVQPGRSLRLSCAASGFTFSTYAMHWVRQAPGKGLEWVAVISYDGSNKYYADSVKGRFTISRDNSKNTLYLQMNSLRAEDTAVYYCARGYGSGSYYPLYLYWGQGTLVTVSS VL: not shown",,505,
"antibody 563 (antibody, V domains shown) VH: QVQLVESGGGVVQPGRSLRLSCAASGFTFSSYAMHWVRQAPGKGLEWVAVISDDGSNKYYADSVKGRFTISRDNSKNTLYLQMNSLRAEDTAVYYCARDIVATIRRLFDYWGQGTLVTVSS VL: not shown",513,,
"antibody 446 (antibody, V domains shown) VH: QVQLVESGGGVVQPGRSLRLSCAASGFTFSSYAMHWVRQAPGKGLEWVAVISYDGSNKYYADSVKGRFTISRDNSKNTLYLQMNSLRAEDTAVYYCARPNSGSYFGYFQHWGQGTLVTVSS VL: QSVLTQPPSVSGAPGQRVTISCTGSSSNIGAGYDVHWYQQLPGTAPKLLIYGNSNRPSGVPDRFSGSKSGTSASLAITGLQAEDEADYYCQSYDSSLSGFYVFGTGTKVTVL",,435,
"antibody 566 (antibody, V domains shown) VH: QVQLVQSGAEVKKPGASVKVSCKASGYTFTSYAMHWVRQAPGQRLEWMGWINAGNGNTKYSQKFQGRVTITRDTSASTAYMELSSLRSEDTAVYYCARDLGVAVTLHPADFDYWGQGTLVTVSS VL: QSVLTQPPSVSGAPGQRVTISCTGSSSNIGAGYDVHWYQQLPGTAPKLLIYDNSNRPSGVPDRFSGSKSGTSASLAITGLQAEDEADYYCQSYDSSLSAVVFGGGTKLTVL",613,,
"antibody 564 (antibody, V domains shown) VH: QVHLVESGGGVVQPGKSLRLSCAASGFIFSSFGMHWVRQPPGKGLEWLAVVSYDGSVTKYSDSFEGRFTISRDNSKNTLYLQMDSLRPEDTAVYYCAKGQGTNLLHYWGQGILVTVSS VL: DVVLSQSPLSLPVTLGQPASISCRSSESLVYTDGDTYLHWFHQRPGQSPRRLIFKVSHRESGVPDRISGSGSGTDFTLKISRVEAEDVGVYYCMQGTHWPFTFGPGTKVDIK",523,,
"antibody 431 (antibody, V domains shown) VH: QVQLVESGGGVVQPGRSLRLSCAASGFTFSSYAMHWVRQAPGKGLEWLAVISYDGSNKYYADSVKGRFTISRDNSKNTLYLQMNSLRAEDTAVYYCARSFRGGYYYGMDVWGQGTTVTVSS VL: DIQLTQSPSFLSASVGDRVTITCRASQGISSYLAWYQQKPGKAPKLLIYAASTLQSGVPSRFSGSGSGTEFTLTISSLQPEDFATYYCQQLNSYPLFTFGPGTKVDIK",,715,
"antibody 576 (antibody, V domains shown) VH: QVQLVESGGGVVQPGRSLRLSCAASGFTFSSYAMHWVRQAPGKGLEWVAVISYDGSNKYYADSVKGRFTISRDNSKNTLYLQMNSLRAEDTAVYYCAKAGGGSYYRGFDYWGQGTLVTVSS VL: DIQLTQSPSFLSASVGDRVTITCRASQGISSYLAWYQQKPGKAPKLLIYAASTLQSGVPSRFSGSGSGTEFTLTISSLQPEDFATYYCQQLNSYPTFGPGTKVDIK",566,,
"antibody 569 (antibody, V domains shown) VH: QVQLVESGGGVVQPGRSLRLSCAASGFTFSSYAMHWVRQAPGKGLEWVAVISYDGSNKYYADSVKGRFTISRDNSKNTLYLQMNSLRAEDTAVYYCARASSGGYQGPFDPWGQGTLVTVSS VL: EIVLTQSPATLSLSPGERATLSCRASQSVSSYLAWYQQKPGQAPRLLIYDASNRATGIPARFSGSGSGTDFTLTISSLEPEDFAVYYCQQRSSPFGPGTKVDIK",478,,
"antibody 439 (antibody, V domains shown) VH: QVQLVESGGGVVQPGRSLRLSCAASGFTFSSYAMHWVRQAPGKGLEWVAVISYDGSNKYYADSVKGRFTISRDNSKNTLYLQMNSLRAEDTAVYYCARPPRGGSYYPFDPWGQGTLVTVSS VL: not shown",,227,
